Assay results taken from patent publication US20140348785A1 (published 2014).

B1: G52cA (heavy chain) (antibody, V domains shown)
VH: EVQLVESGGGLVKPGGSLRLSCSASGFDFDNAWMTWVRQPPGKGLEWVGRITGPAEGWSVDYAAPVEGRFTISRLNSINFLYLEMNNLRMEDSGLYFCARTGKYYDFWSGYPPGEEYFQDWGRGTLVTVSS
VL: SYELTQETGVSVALGRTVTITCRGDSLRSHYASWYQKKPGQAPILLFYGKNNRPSGVPDRFSGSASGNRASLTISGAQAEDDAEYYCSSRDKSGSRLSVFGGGTKLTVL
B2: E100iA (heavy chain) (antibody, V domains shown)
VH: EVQLVESGGGLVKPGGSLRLSCSASGFDFDNAWMTWVRQPPGKGLEWVGRITGPGEGWSVDYAAPVEGRFTISRLNSINFLYLEMNNLRMEDSGLYFCARTGKYYDFWSGYPPGAEYFQDWGRGTLVTVSS
VL: SYELTQETGVSVALGRTVTITCRGDSLRSHYASWYQKKPGQAPILLFYGKNNRPSGVPDRFSGSASGNRASLTISGAQAEDDAEYYCSSRDKSGSRLSVFGGGTKLTVL
B3: F100aA (heavy chain) (antibody, V domains shown)
VH: EVQLVESGGGLVKPGGSLRLSCSASGFDFDNAWMTWVRQPPGKGLEWVGRITGPGEGWSVDYAAPVEGRFTISRLNSINFLYLEMNNLRMEDSGLYFCARTGKYYDAWSGYPPGEEYFQDWGRGTLVTVSS
VL: SYELTQETGVSVALGRTVTITCRGDSLRSHYASWYQKKPGQAPILLFYGKNNRPSGVPDRFSGSASGNRASLTISGAQAEDDAEYYCSSRDKSGSRLSVFGGGTKLTVL
B4: N31A (heavy chain) (antibody, V domains shown)
VH: EVQLVESGGGLVKPGGSLRLSCSASGFDFDAAWMTWVRQPPGKGLEWVGRITGPGEGWSVDYAAPVEGRFTISRLNSINFLYLEMNNLRMEDSGLYFCARTGKYYDFWSGYPPGEEYFQDWGRGTLVTVSS
VL: SYELTQETGVSVALGRTVTITCRGDSLRSHYASWYQKKPGQAPILLFYGKNNRPSGVPDRFSGSASGNRASLTISGAQAEDDAEYYCSSRDKSGSRLSVFGGGTKLTVL
B5: 10E8 IgG alanine variant E53A (heavy chain, Kabat) (antibody, V domains shown)
VH: EVQLVESGGGLVKPGGSLRLSCSASGFDFDNAWMTWVRQPPGKGLEWVGRITGPGAGWSVDYAAPVEGRFTISRLNSINFLYLEMNNLRMEDSGLYFCARTGKYYDFWSGYPPGEEYFQDWGRGTLVTVSS
VL: SYELTQETGVSVALGRTVTITCRGDSLRSHYASWYQKKPGQAPILLFYGKNNRPSGVPDRFSGSASGNRASLTISGAQAEDDAEYYCSSRDKSGSRLSVFGGGTKLTVL
B6: W100bA (heavy chain) (antibody, V domains shown)
VH: EVQLVESGGGLVKPGGSLRLSCSASGFDFDNAWMTWVRQPPGKGLEWVGRITGPGEGWSVDYAAPVEGRFTISRLNSINFLYLEMNNLRMEDSGLYFCARTGKYYDFASGYPPGEEYFQDWGRGTLVTVSS
VL: SYELTQETGVSVALGRTVTITCRGDSLRSHYASWYQKKPGQAPILLFYGKNNRPSGVPDRFSGSASGNRASLTISGAQAEDDAEYYCSSRDKSGSRLSVFGGGTKLTVL
B7: Y98A (heavy chain) (antibody, V domains shown)
VH: EVQLVESGGGLVKPGGSLRLSCSASGFDFDNAWMTWVRQPPGKGLEWVGRITGPGEGWSVDYAAPVEGRFTISRLNSINFLYLEMNNLRMEDSGLYFCARTGKAYDFWSGYPPGEEYFQDWGRGTLVTVSS
VL: SYELTQETGVSVALGRTVTITCRGDSLRSHYASWYQKKPGQAPILLFYGKNNRPSGVPDRFSGSASGNRASLTISGAQAEDDAEYYCSSRDKSGSRLSVFGGGTKLTVL
B8: D30A (heavy chain) (antibody, V domains shown)
VH: EVQLVESGGGLVKPGGSLRLSCSASGFDFANAWMTWVRQPPGKGLEWVGRITGPGEGWSVDYAAPVEGRFTISRLNSINFLYLEMNNLRMEDSGLYFCARTGKYYDFWSGYPPGEEYFQDWGRGTLVTVSS
VL: SYELTQETGVSVALGRTVTITCRGDSLRSHYASWYQKKPGQAPILLFYGKNNRPSGVPDRFSGSASGNRASLTISGAQAEDDAEYYCSSRDKSGSRLSVFGGGTKLTVL
B9: R95bA (light chain) (antibody, V domains shown)
VH: EVQLVESGGGLVKPGGSLRLSCSASGFDFDNAWMTWVRQPPGKGLEWVGRITGPGEGWSVDYAAPVEGRFTISRLNSINFLYLEMNNLRMEDSGLYFCARTGKYYDFWSGYPPGEEYFQDWGRGTLVTVSS
VL: SYELTQETGVSVALGRTVTITCRGDSLRSHYASWYQKKPGQAPILLFYGKNNRPSGVPDRFSGSASGNRASLTISGAQAEDDAEYYCSSRDKSGSALSVFGGGTKLTVL
B10: S100cA (heavy chain) (antibody, V domains shown)
VH: EVQLVESGGGLVKPGGSLRLSCSASGFDFDNAWMTWVRQPPGKGLEWVGRITGPGEGWSVDYAAPVEGRFTISRLNSINFLYLEMNNLRMEDSGLYFCARTGKYYDFWAGYPPGEEYFQDWGRGTLVTVSS
VL: SYELTQETGVSVALGRTVTITCRGDSLRSHYASWYQKKPGQAPILLFYGKNNRPSGVPDRFSGSASGNRASLTISGAQAEDDAEYYCSSRDKSGSRLSVFGGGTKLTVL
B11: D58A (heavy chain) (antibody, V domains shown)
VH: EVQLVESGGGLVKPGGSLRLSCSASGFDFDNAWMTWVRQPPGKGLEWVGRITGPGEGWSVAYAAPVEGRFTISRLNSINFLYLEMNNLRMEDSGLYFCARTGKYYDFWSGYPPGEEYFQDWGRGTLVTVSS
VL: SYELTQETGVSVALGRTVTITCRGDSLRSHYASWYQKKPGQAPILLFYGKNNRPSGVPDRFSGSASGNRASLTISGAQAEDDAEYYCSSRDKSGSRLSVFGGGTKLTVL
B12: G100dA (heavy chain) (antibody, V domains shown)
VH: EVQLVESGGGLVKPGGSLRLSCSASGFDFDNAWMTWVRQPPGKGLEWVGRITGPGEGWSVDYAAPVEGRFTISRLNSINFLYLEMNNLRMEDSGLYFCARTGKYYDFWSAYPPGEEYFQDWGRGTLVTVSS
VL: SYELTQETGVSVALGRTVTITCRGDSLRSHYASWYQKKPGQAPILLFYGKNNRPSGVPDRFSGSASGNRASLTISGAQAEDDAEYYCSSRDKSGSRLSVFGGGTKLTVL
B13: S56A (heavy chain) (antibody, V domains shown)
VH: EVQLVESGGGLVKPGGSLRLSCSASGFDFDNAWMTWVRQPPGKGLEWVGRITGPGEGWAVDYAAPVEGRFTISRLNSINFLYLEMNNLRMEDSGLYFCARTGKYYDFWSGYPPGEEYFQDWGRGTLVTVSS
VL: SYELTQETGVSVALGRTVTITCRGDSLRSHYASWYQKKPGQAPILLFYGKNNRPSGVPDRFSGSASGNRASLTISGAQAEDDAEYYCSSRDKSGSRLSVFGGGTKLTVL
B14: K97A (heavy chain) (antibody, V domains shown)
VH: EVQLVESGGGLVKPGGSLRLSCSASGFDFDNAWMTWVRQPPGKGLEWVGRITGPGEGWSVDYAAPVEGRFTISRLNSINFLYLEMNNLRMEDSGLYFCARTGAYYDFWSGYPPGEEYFQDWGRGTLVTVSS
VL: SYELTQETGVSVALGRTVTITCRGDSLRSHYASWYQKKPGQAPILLFYGKNNRPSGVPDRFSGSASGNRASLTISGAQAEDDAEYYCSSRDKSGSRLSVFGGGTKLTVL
B15: D28A (heavy chain) (antibody, V domains shown)
VH: EVQLVESGGGLVKPGGSLRLSCSASGFAFDNAWMTWVRQPPGKGLEWVGRITGPGEGWSVDYAAPVEGRFTISRLNSINFLYLEMNNLRMEDSGLYFCARTGKYYDFWSGYPPGEEYFQDWGRGTLVTVSS
VL: SYELTQETGVSVALGRTVTITCRGDSLRSHYASWYQKKPGQAPILLFYGKNNRPSGVPDRFSGSASGNRASLTISGAQAEDDAEYYCSSRDKSGSRLSVFGGGTKLTVL
B16: E100jA (heavy chain) (antibody, V domains shown)
VH: EVQLVESGGGLVKPGGSLRLSCSASGFDFDNAWMTWVRQPPGKGLEWVGRITGPGEGWSVDYAAPVEGRFTISRLNSINFLYLEMNNLRMEDSGLYFCARTGKYYDFWSGYPPGEAYFQDWGRGTLVTVSS
VL: SYELTQETGVSVALGRTVTITCRGDSLRSHYASWYQKKPGQAPILLFYGKNNRPSGVPDRFSGSASGNRASLTISGAQAEDDAEYYCSSRDKSGSRLSVFGGGTKLTVL
B17: P100fA (heavy chain) (antibody, V domains shown)
VH: EVQLVESGGGLVKPGGSLRLSCSASGFDFDNAWMTWVRQPPGKGLEWVGRITGPGEGWSVDYAAPVEGRFTISRLNSINFLYLEMNNLRMEDSGLYFCARTGKYYDFWSGYAPGEEYFQDWGRGTLVTVSS
VL: SYELTQETGVSVALGRTVTITCRGDSLRSHYASWYQKKPGQAPILLFYGKNNRPSGVPDRFSGSASGNRASLTISGAQAEDDAEYYCSSRDKSGSRLSVFGGGTKLTVL
B18: Y100eA (heavy chain) (antibody, V domains shown)
VH: EVQLVESGGGLVKPGGSLRLSCSASGFDFDNAWMTWVRQPPGKGLEWVGRITGPGEGWSVDYAAPVEGRFTISRLNSINFLYLEMNNLRMEDSGLYFCARTGKYYDFWSGAPPGEEYFQDWGRGTLVTVSS
VL: SYELTQETGVSVALGRTVTITCRGDSLRSHYASWYQKKPGQAPILLFYGKNNRPSGVPDRFSGSASGNRASLTISGAQAEDDAEYYCSSRDKSGSRLSVFGGGTKLTVL
B19: P100gA (heavy chain) (antibody, V domains shown)
VH: EVQLVESGGGLVKPGGSLRLSCSASGFDFDNAWMTWVRQPPGKGLEWVGRITGPGEGWSVDYAAPVEGRFTISRLNSINFLYLEMNNLRMEDSGLYFCARTGKYYDFWSGYPAGEEYFQDWGRGTLVTVSS
VL: SYELTQETGVSVALGRTVTITCRGDSLRSHYASWYQKKPGQAPILLFYGKNNRPSGVPDRFSGSASGNRASLTISGAQAEDDAEYYCSSRDKSGSRLSVFGGGTKLTVL
B20: T52A (heavy chain) (antibody, V domains shown)
VH: EVQLVESGGGLVKPGGSLRLSCSASGFDFDNAWMTWVRQPPGKGLEWVGRIAGPGEGWSVDYAAPVEGRFTISRLNSINFLYLEMNNLRMEDSGLYFCARTGKYYDFWSGYPPGEEYFQDWGRGTLVTVSS
VL: SYELTQETGVSVALGRTVTITCRGDSLRSHYASWYQKKPGQAPILLFYGKNNRPSGVPDRFSGSASGNRASLTISGAQAEDDAEYYCSSRDKSGSRLSVFGGGTKLTVL
B21: 10E8 monoclonal antibody (full-length IgG) (antibody, V domains shown)
VH: EVQLVESGGGLVKPGGSLRLSCSASGFDFDNAWMTWVRQPPGKGLEWVGRITGPGEGWSVDYAAPVEGRFTISRLNSINFLYLEMNNLRMEDSGLYFCARTGKYYDFWSGYPPGEEYFQDWGRGTLVTVSS
VL: SYELTQETGVSVALGRTVTITCRGDSLRSHYASWYQKKPGQAPILLFYGKNNRPSGVPDRFSGSASGNRASLTISGAQAEDDAEYYCSSRDKSGSRLSVFGGGTKLTVL

Target: soluble gp41 MPER peptide RRR-(656-683)-RRR
Assay: kinetic binding (ka/kd)

Q: Which Kd does the source give for B1 here?
A: 11.1 nM

Q: Which Kd does the source give for B2 here?
A: 433 nM

Q: With B3 as the binder, how does the Kd read?
A: 429 nM

Q: With B4 as the binder, how does the Kd read?
A: 13 nM

Q: B5 was tested. Which Kd did it give?
A: 395 nM

Q: For B6, which Kd is on record?
A: 93.1 nM

Q: Which Kd does the source give for B7 here?
A: 27 nM

Q: B8 was tested. Which Kd did it give?
A: 11.8 nM

Q: With B9 as the binder, how does the Kd read?
A: 28.6 nM

Q: For B10, which Kd is on record?
A: 9.65 nM

Q: For B11, which Kd is on record?
A: 30.6 nM

Q: B12 was tested. Which Kd did it give?
A: 315 nM

Q: For B13, which Kd is on record?
A: 10.9 nM

Q: How did the Kd turn out when B14 was run?
A: 24.8 nM

Q: Which Kd does the source give for B15 here?
A: 14.3 nM

Q: With B16 as the binder, how does the Kd read?
A: 361 nM

Q: How did the Kd turn out when B17 was run?
A: 757 nM

Q: For B18, which Kd is on record?
A: 75.9 nM

Q: With B19 as the binder, how does the Kd read?
A: 691 nM

Q: Which Kd does the source give for B20 here?
A: 10.9 nM

Target: soluble gp41 MPER peptide RRR-(656-683)-RRR
Assay: kinetic binding (ka/kd); mean of three runs

Q: With B21 as the binder, how does the Kd read?
A: 6.08 nM
